The assay addresses Recombinant human serum albumin (human, UniProt P02768 25-609). Briefly: SPR (BIACORE 3000), recombinant HSA immobilized on CM5 chip. The method, then: To measure the binding affinities of the ABD-fused insulin analogue proteins for albumin, a surface plasmon resonance (SPR, BIACORE 3000, GE healthcare) analysis method was used. Recombinant human serum albumin was immobilized on a CM5 chip by an amine coupling method, and the ABD or ABD-fused insulin analogues diluted to five or more concentrations were bound thereto, and the affinities thereof for the human serum albumin were measured.

Recombinant human serum albumin, sequence (P02768 25-609 limits assumed): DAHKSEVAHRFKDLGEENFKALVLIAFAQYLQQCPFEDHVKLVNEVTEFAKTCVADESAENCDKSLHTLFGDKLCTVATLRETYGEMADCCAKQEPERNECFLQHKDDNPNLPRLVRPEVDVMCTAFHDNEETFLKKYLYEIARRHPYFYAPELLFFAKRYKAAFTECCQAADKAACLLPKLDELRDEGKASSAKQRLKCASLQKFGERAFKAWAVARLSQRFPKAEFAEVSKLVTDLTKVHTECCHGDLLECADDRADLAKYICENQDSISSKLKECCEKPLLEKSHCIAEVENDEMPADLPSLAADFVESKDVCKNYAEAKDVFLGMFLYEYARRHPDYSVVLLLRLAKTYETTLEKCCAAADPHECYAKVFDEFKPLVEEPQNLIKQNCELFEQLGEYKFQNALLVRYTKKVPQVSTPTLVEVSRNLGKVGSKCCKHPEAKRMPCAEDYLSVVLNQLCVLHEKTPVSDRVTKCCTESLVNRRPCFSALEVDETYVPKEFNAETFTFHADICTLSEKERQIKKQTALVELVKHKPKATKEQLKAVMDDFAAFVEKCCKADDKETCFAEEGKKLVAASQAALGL

Consider LAEAKEAANAELDSYGVSDFYKKLIDKAKTVEGVEALKDAILAALP (designed binder) [albumin-binding domain (ABD)], for which the Kd came out at 7.29 pM, the koff was 2.41e-05 s⁻¹ and the kon stood at 5.93e+06 M⁻¹ s⁻¹.

For the origin of these results see US20210309710A1 (DAEWOONG PHARMACEUTICAL, published 2021).
